First the molecules themselves.
B1: Cytoplasmic polyadenylation element-binding protein 2, residues 513 to 575; numbered along this chain, Q7Z5Q1 (parent)
chain: KRVEVKPYVLDDQMCDECQGARCGGKFAPFFCANVTCLQYYCEFCWANIHSRAGREFHKPLVK

± gives the uncertainty stated by the source.

In this data set the parent is B1. Briefly: abundance fitness (aPCA) (normalised: wild type 0, dead -1); higher = more abundant; growth selection in yeast, the domain comes from the species named. As to conditions: Homo sapiens.
With KRVEVKPYVLDDQMCDECQGARCGGKFAPFFCANVTCMQYYCEFCWANIHSRAGREFHKPLVK, the abundance fitness is 0.123 ± 0.064.
The figure for KRVEVKPYVLDDQMCDECQGARCGGKFAPFFCANVTCIQYYCEFCWANIHSRAGREFHKPLVK is -0.115 ± 0.072.
With KRVEVKPYVLDDQMCDECQGARCGGKFAPFFCANVTCWQYYCEFCWANIHSRAGREFHKPLVK the figure was 0.022 ± 0.046; with KRVEVKPYVLDDQMCDECQGARCGGKFAPFFCANVTCVQYYCEFCWANIHSRAGREFHKPLVK, -0.094 ± 0.038.
The figure for KRVEVKPYVLDDQMCDECQGARCGGKFAPFFCANVTCSQYYCEFCWANIHSRAGREFHKPLVK is 0.009 ± 0.052; for KRVEVKPYVLDDQMCDECQGARCGGKFAPFFCANVTCTQYYCEFCWANIHSRAGREFHKPLVK it is -0.072 ± 0.059; for KRVEVKPYVLDDQMCDECQGARCGGKFAPFFCANVTCRQYYCEFCWANIHSRAGREFHKPLVK it is 0.056 ± 0.041.
For KRVEVKPYVLDDQMCDECQGARCGGKFAPFFCANVTCPQYYCEFCWANIHSRAGREFHKPLVK, the abundance fitness was -0.706 ± 0.087.
The figure for KRVEVKPYVLDDQMCDECQGARCGGKFAPFFCANVTCYQYYCEFCWANIHSRAGREFHKPLVK is 0.174 ± 0.077; for KRVEVKPYVLDDQMCDECQGARCGGKFAPFFCANVTCNQYYCEFCWANIHSRAGREFHKPLVK it is 0.219 ± 0.071; for KRVEVKPYVLDDQMCDECQGARCGGKFAPFFCANVTCKQYYCEFCWANIHSRAGREFHKPLVK it is 0.202 ± 0.062.
With KRVEVKPYVLDDQMCDECQGARCGGKFAPFFCANVTCLQYYCGFCWANIHSRAGREFHKPLVK the figure was -0.179 ± 0.047; with KRVEVKPYVLDDQMCDECQGARCGGKFAPFFCANVTCLQYYCDFCWANIHSRAGREFHKPLVK, -0.049 ± 0.083; with KRVEVKPYVLDDQMCDECQGARCGGKFAPFFCANVTCLQYYCAFCWANIHSRAGREFHKPLVK, -0.3 ± 0.067.
KRVEVKPYVLDDQMCDECQGARCGGKFAPFFCANVTCLQYYCFFCWANIHSRAGREFHKPLVK: the abundance fitness was -0.298 ± 0.052.
With KRVEVKPYVLDDQMCDECQGARCGGKFAPFFCANVTCLQYYCCFCWANIHSRAGREFHKPLVK the figure was -0.25 ± 0.051.
The figure for KRVEVKPYVLDDQMCDECQGARCGGKFAPFFCANVTCLQYLCEFCWANIHSRAGREFHKPLVK is 0.039 ± 0.039.
The figure for KRVEVKPYVLDDQMCDECQGARCGGKFAPFFCANVTCLQYACEFCWANIHSRAGREFHKPLVK is -0.676 ± 0.072; for KRVEVKPYVLDDQMCDECQGARCGGKFAPFFCANVTCLQYDCEFCWANIHSRAGREFHKPLVK it is -0.729 ± 0.1; for KRVEVKPYVLDDQMCDECQGARCGGKFAPFFCANVTCLQYGCEFCWANIHSRAGREFHKPLVK it is -0.878 ± 0.072.
For the variant KRVEVKPYVLDDQMCDECQGARCGGKFAPFFCANVTCLQYMCEFCWANIHSRAGREFHKPLVK, the abundance fitness was -0.053 ± 0.056.
The figure for KRVEVKPYVLDDQMCDECQGARCGGKFAPFFCANVTCLQYSCEFCWANIHSRAGREFHKPLVK is -0.532 ± 0.064.
The figure for KRVEVKPYVLDDQMCDECQGARCGGKFAPFFCANVTCLQYPCEFCWANIHSRAGREFHKPLVK is -0.734 ± 0.082; for KRVEVKPYVLDDQMCDECQGARCGGKFAPFFCANVTCLQYRCEFCWANIHSRAGREFHKPLVK it is -0.804 ± 0.067.
With KRVEVKPYVLDDQMCDECQGARCGGKFAPFFCANVTCLQYKCEFCWANIHSRAGREFHKPLVK the figure was -0.625 ± 0.1.
Regarding KRVEVKPYVLDDQMCDECQGARCGGKFAPFFCANVTCLQYHCEFCWANIHSRAGREFHKPLVK, the abundance fitness is -0.704 ± 0.26.
With KRVEVKPYVLDDQMCDECQGARCGGKFAPFFCANVTCLQYFCEFCWANIHSRAGREFHKPLVK the figure was -0.088 ± 0.11.
As to KRVEVKPYVLDDQMCDECQGARCGGKFAPFFCANVTCLQYQCEFCWANIHSRAGREFHKPLVK, the abundance fitness is -0.433 ± 0.073.
With KRVEVKPYVLDDQMCDECQGARCGGKFAPFFCANVTCLQYTCEFCWANIHSRAGREFHKPLVK the figure was -0.329 ± 0.088; with KRVEVKPYVLDDQMCDECQGARCGGKFAPFFCANVTCLQYECEFCWANIHSRAGREFHKPLVK, -0.652 ± 0.081.
As for KRVEVKPYVLDDQMCDECQGARCGGKFAPFFCANVTCLQYVCEFCWANIHSRAGREFHKPLVK, the abundance fitness was -0.531 ± 0.042.
With KRVEVKPYVLDDQMCDECQGARCGGKFAPFFCANVTCLQYNCEFCWANIHSRAGREFHKPLVK the figure was -0.898 ± 0.3; with KRVEVKPYVLDDQMCDECQGARCGGKFAPFFCANVTCLQYCCEFCWANIHSRAGREFHKPLVK, -0.365 ± 0.09.
For KRVEVKPYVLDDQMCDECQGARCGGKFAPFFCANVTCLQYICEFCWANIHSRAGREFHKPLVK, the abundance fitness is -0.694 ± 0.14.
With KRVEVKPYVLDDQMCDECQGARCGGKFAPFFCANVTCLQYYDEFCWANIHSRAGREFHKPLVK the figure was -0.558 ± 0.094.
With KRVEVKPYVLDDQMCDECQGARCGGKFAPFFCANVTCLQYYGEFCWANIHSRAGREFHKPLVK the figure was -0.58 ± 0.08; with KRVEVKPYVLDDQMCDECQGARCGGKFAPFFCANVTCLQYYFEFCWANIHSRAGREFHKPLVK, -0.819 ± 0.11; with KRVEVKPYVLDDQMCDECQGARCGGKFAPFFCANVTCLQYYHEFCWANIHSRAGREFHKPLVK, -0.818 ± 0.068.
With KRVEVKPYVLDDQMCDECQGARCGGKFAPFFCANVTCLQYYMEFCWANIHSRAGREFHKPLVK the figure was -1.22 ± 0.24.
As for KRVEVKPYVLDDQMCDECQGARCGGKFAPFFCANVTCLQYYYEFCWANIHSRAGREFHKPLVK, the abundance fitness is -0.869 ± 0.094.
The figure for KRVEVKPYVLDDQMCDECQGARCGGKFAPFFCANVTCLQYYLEFCWANIHSRAGREFHKPLVK is -1.03 ± 0.075; for KRVEVKPYVLDDQMCDECQGARCGGKFAPFFCANVTCLQYYPEFCWANIHSRAGREFHKPLVK it is -0.826 ± 0.08.

These data come from the Human Domainome abundance scans (Beltran et al. 2025).
